Laboratory results taken from article PMC9002095, “A SIRPαFc Fusion Protein Conjugated With the Collagen-Binding Domain for Targeted Immunotherapy of Non-Small Cell Lung Cancer” (Frontiers in Immunology, 2022).
One block for each binder: values may come before it.

Experiments:
[1] = target: T1, collagen type I (UniProt P02454 152-1207; P02466 86-1125); test: ELISA; 96-well plate coated with 100 μg/ml collagen type I or 2% BSA at 4°C overnight, blocked with 2% BSA in PBS-T; SIRPαFc or CBD–SIRPαFc in five concentrations, 37°C, 2 h; detected with HRP anti-human IgG1 Fc antibody; KD by non-linear regression (one-site specific binding); conditions: both partners purified
T1 construct: collagen type I, alpha 1 chain; collagen type I, alpha 2 chain; also called collagen I; source: bought: Corning
T1 sequence (P02454 152-1207, chain 1 of 2): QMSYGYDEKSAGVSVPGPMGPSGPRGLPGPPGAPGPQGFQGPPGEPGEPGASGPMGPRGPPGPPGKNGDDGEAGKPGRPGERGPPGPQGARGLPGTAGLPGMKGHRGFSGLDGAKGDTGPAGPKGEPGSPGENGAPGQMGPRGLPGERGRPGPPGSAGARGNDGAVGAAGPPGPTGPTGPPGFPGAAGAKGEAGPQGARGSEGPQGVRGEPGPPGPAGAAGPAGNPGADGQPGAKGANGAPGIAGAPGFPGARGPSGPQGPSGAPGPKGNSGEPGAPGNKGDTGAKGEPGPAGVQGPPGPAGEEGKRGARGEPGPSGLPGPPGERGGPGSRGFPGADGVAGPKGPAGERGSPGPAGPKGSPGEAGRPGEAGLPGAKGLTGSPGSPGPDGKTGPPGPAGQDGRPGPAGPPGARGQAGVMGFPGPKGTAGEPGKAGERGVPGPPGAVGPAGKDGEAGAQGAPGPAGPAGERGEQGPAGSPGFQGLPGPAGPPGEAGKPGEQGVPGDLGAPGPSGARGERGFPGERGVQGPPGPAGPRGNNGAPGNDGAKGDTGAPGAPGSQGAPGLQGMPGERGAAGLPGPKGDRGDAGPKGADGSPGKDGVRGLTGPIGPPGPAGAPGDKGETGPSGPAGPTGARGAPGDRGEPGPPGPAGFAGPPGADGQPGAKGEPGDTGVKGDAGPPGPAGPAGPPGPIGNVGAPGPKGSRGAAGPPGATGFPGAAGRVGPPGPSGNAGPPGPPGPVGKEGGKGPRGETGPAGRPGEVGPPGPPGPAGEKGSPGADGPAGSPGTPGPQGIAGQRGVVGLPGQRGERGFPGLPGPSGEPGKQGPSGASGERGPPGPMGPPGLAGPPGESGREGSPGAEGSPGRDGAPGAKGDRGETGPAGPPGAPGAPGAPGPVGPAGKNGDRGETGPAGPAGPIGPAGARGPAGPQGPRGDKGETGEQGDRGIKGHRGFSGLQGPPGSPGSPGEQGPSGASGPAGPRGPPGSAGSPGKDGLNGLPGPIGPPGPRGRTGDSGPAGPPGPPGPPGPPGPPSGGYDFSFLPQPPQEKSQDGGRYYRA
T1 sequence (P02466 86-1125, chain 2 of 2): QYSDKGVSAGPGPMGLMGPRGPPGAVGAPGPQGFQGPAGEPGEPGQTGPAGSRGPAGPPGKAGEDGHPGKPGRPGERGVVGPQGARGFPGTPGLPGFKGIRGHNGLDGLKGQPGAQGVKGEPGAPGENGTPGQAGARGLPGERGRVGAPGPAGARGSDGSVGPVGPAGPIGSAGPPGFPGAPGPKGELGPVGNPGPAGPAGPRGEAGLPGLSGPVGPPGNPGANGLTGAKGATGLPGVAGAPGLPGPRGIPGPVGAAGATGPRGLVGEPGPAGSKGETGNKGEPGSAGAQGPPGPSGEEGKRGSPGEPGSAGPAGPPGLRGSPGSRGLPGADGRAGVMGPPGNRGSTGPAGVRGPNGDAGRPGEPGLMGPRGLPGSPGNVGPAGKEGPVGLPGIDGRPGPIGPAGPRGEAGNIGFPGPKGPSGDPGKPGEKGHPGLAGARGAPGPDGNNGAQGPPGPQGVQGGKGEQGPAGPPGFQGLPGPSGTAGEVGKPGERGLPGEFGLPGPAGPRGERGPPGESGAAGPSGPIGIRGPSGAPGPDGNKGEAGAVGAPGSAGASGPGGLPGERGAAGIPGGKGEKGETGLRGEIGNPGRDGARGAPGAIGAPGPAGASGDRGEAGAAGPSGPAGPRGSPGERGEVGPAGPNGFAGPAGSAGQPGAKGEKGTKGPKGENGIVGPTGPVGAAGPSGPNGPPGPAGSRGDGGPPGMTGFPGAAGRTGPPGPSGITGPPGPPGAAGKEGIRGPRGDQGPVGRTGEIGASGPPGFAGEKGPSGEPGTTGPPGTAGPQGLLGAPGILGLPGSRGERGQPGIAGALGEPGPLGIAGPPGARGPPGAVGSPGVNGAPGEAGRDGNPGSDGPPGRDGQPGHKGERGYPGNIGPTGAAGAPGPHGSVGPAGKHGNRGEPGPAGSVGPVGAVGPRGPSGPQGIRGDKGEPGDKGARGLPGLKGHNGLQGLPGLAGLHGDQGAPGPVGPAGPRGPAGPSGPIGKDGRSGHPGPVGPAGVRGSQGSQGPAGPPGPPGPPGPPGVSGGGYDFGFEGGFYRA

[2] = target: T2, human CD47 (human, UniProt Q08722 19-323); test: SPR; Biacore T200; SIRPαFc or CBD–SIRPαFc caught on a CM5 chip activated by EDC-NHS; human CD47 in six concentrations flowed over; conditions: both partners purified
T2 construct: CD47, human, in solution as the analyte of Biacore
T2 sequence (Q08722 19-323): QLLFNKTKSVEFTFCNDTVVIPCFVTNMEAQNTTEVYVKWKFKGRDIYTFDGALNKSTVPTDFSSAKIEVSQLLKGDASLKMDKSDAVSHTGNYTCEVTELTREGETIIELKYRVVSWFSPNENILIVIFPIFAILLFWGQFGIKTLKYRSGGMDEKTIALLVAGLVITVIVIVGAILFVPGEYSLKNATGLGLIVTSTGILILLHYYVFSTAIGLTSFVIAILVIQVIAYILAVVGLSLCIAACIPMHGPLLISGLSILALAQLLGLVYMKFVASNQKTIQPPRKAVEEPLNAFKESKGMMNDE

Kd [1]: 180 nM
Kd [2]: 1.44 nM
B1: TKKTLRT–SIRPαFc conjugate (Fc fusion)
chain 1: EEELQVIQPDKSVLVAAGETATLRCTATSLIPVGPIQWFRGAGPGRELIYNQKEGHFPRVTTVSDLTKRNNMDFSIRIGNITPADAGTYYCVKFRKGSPDDVEFKSG
chain 2: TKKTLRTC
modifications: free amino groups joined through Sulfo-SMCC to the cysteine of the peptide TKKTLRTC; one or two peptides on one SIRPαFc (MALDI-TOF-MS); sites not told | sulfhydryl of the C-terminal cysteine joined to the maleimide group of Sulfo-SMCC

Kd [2]: 3.3 nM
B2: human SIRPαFc fusion protein (Fc fusion)
chain: B1 chain 1
